Laboratory results as given in patent publication US20230235004A1 (published 2023).
Where a chain is given by its changes, count along the chain named.

T1: human MAdCAM protein (human, UniProt Q13477 19-317, limits assumed)
T1 construct: also called soluble monomeric human MAdCAM; recombinant human MAdCAM
T1 sequence (looked up): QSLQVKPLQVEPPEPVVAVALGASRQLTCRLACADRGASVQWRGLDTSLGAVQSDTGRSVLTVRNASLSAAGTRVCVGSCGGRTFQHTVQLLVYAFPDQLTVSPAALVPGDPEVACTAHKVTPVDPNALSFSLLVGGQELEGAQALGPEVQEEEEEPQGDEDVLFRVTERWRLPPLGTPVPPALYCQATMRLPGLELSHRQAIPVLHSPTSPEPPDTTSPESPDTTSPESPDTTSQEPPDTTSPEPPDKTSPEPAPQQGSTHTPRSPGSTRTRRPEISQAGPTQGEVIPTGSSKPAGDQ

T2: recombinant mouse MAdCAM-1 (mouse, UniProt Q61826 22-364, limits assumed)
T2 construct: also called mMAdCAM-1
T2 sequence (looked up): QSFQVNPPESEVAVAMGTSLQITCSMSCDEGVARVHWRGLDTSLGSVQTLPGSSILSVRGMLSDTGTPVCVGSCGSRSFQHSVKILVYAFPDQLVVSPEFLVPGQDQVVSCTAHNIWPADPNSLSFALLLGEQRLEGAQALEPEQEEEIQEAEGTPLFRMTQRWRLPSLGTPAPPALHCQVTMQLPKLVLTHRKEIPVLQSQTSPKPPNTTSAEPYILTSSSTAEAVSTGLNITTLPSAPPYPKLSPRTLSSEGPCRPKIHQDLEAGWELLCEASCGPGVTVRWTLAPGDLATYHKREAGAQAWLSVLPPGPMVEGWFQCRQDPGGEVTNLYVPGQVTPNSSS

T3: mouse MAdCAM expressed on cells (mouse, UniProt Q61826 22-405)
T3 construct: whole, on cells
T3 sequence (looked up): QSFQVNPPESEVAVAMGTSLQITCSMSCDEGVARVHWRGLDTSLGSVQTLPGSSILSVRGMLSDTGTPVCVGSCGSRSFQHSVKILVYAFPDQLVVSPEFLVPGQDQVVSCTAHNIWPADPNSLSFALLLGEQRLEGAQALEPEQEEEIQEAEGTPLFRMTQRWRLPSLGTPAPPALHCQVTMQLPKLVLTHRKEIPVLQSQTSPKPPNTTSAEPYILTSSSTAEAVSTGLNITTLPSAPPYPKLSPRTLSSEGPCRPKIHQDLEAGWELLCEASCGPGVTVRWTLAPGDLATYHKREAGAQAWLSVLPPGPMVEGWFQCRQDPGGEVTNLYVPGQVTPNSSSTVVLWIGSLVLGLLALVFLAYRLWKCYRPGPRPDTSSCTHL

T4: human MAdCAM expressed on cells (human, UniProt Q13477 19-382)
T4 construct: whole, on cells
T4 sequence (looked up): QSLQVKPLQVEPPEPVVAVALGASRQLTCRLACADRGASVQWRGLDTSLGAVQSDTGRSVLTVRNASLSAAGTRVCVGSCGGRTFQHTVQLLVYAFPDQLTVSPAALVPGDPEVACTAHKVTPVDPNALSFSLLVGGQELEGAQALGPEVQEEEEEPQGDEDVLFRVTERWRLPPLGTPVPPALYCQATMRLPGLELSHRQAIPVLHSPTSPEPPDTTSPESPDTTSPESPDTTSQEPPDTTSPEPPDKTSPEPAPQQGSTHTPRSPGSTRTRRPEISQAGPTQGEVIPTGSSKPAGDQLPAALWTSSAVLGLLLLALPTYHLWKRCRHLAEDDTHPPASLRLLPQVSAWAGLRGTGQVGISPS

B1: MAdCAM Antibody Table 2 clone 55 (antibody, V domains shown)
VH: EVQLLESGGGLVQPGGSLRLSCAASGFTFDDFAMHWVRQAPGKGLEWVSGISGNGDSRYYADSVKGRFTISRDNSKNTLYLQMNSLRAEDTAVYYCARDASYGGNYGMDVWGQGTTVTVSS
VL: DIQMTQSPSSLSASVGDRVTITCQASQDIRNYLNWYQQKPGKAPKLLIYKASTLESGVPSRFSGSGSGTDFTLTISSLQPEDFATYYCQQANSFPLTFGPGTKVDIK
notes: IgG format
B2: MAdCAM Antibody Table 2 clone 63 (antibody, V domains shown)
VH: EVQLLESGGGLVQPGGSLRLSCAASGFTFNNYGMNWVRQAPGKGLEWVSRINSDGSSTSYADSVKGRFTISRDNSKNTLYLQMNSLRAEDTAVYYCARGAYYYYYMDVWGQGTLVTVSS
VL: EIVMTQSPATLSVSPGERATLSCRASQSVSGSYLAWYQQKPGQAPRLLIYATSSRASGIPARFSGSGSGTEFTLTISSLQSEDFAVYYCQQYYSGLTFGQGTKVEIK
notes: IgG format
B3: MAdCAM Antibody Table 2 clone 58 (antibody, V domains shown)
VH: EVQLLESGGGLVQPGGSLRLSCAASGFSVSSNYMSWVRQAPGKGLEWVAGISYDGSSKPYADSVKGRFTISRDNSKNTLYLQMNSLRAEDTAVYYCARSRGIAARPLQHWGQGTLVTVSS
VL: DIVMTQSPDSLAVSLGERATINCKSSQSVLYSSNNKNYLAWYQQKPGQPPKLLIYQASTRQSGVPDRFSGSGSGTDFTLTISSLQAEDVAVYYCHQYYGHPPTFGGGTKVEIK
notes: IgG format
B4: MAdCAM Antibody Table 2 clone 30 (antibody, V domains shown)
VH: EVQLLESGGGLVQPGGSLRLSCAASGFTFSSYAMHWVRQAPGKGLEWVSGISGSGGSAYYADSVKGRFTISRDNSKNTLYLQMNSLRAEDTAVYYCATSQAPVDYYYYGMDVWGQGTTVTVSS
VL: DIQMTQSPSSLSASVGDRVTITCRASQSISSWLAWYQQKPGKAPKLLIYAASNLQRGVPSRFSGSGSGTDFTLTISSLQPEDFATYYCQQSYSIPITFGQGTKVEIK
notes: IgG format
B5: MAdCAM Antibody Table 2 clone 82 (antibody, V domains shown)
VH: QVQLVQSGAEVKKPGASVKVSCKASGYTFTRHWIHWVRQAPGQGLEWMGWINVKTGGAGYAQKFQGRVTMTRDTSTSTVYMELSSLRSEDTAVYYCARESSGWYGTDVWGQGTTVTVSS
VL: B4 VL with V19A, S31N, W32Y, N53S, R56S, Y92N, I94F, I96L, Q100G
notes: IgG format
B6: MAdCAM Antibody Table 2 clone 60 (antibody, V domains shown)
VH: EVQLLESGGGLVQPGGSLRLSCAASGFTFSDHGMHWVRQAPGKGLEWVSVIYGGESTYYADSVKGRFTISRDNSKNTLYLQMNSLRAEDTAVYYCARDPAVAGGGIFDYWGQGTLVTVSS
VL: B4 VL with S28G, S31N, W32Y, A50D, Q55E, R56T, I94T, P95C, I96Y, V104L
notes: IgG format
B7: MAdCAM Antibody Table 2 clone 83 (antibody, V domains shown)
VH: EVQLLESGGGLVQPGGSLRLSCAASGFTFSSYWMHWVRQAPGKGLEWVAAISYDGKYKDYEDSVKGRFTISRDNSKNTLYLQMNSLRAEDTAVYYCARENKQWLASFDYWGQGTLVTVSS
VL: DIQMTQSPSSLSASVGDRVTITCQASQDISNFVNWYQQKPGKAPKLLIYAANLRSGVPSRFSGSGSGTDFTLTISSLQPEDFATYYCQQANSFPVTFGPGTKVDIK
notes: IgG format
B8: MAdCAM Antibody Table 2 clone 36 (antibody, V domains shown)
VH: EVQLLESGGGLVQPGGSLRLSCAASGFTFDDYALHWVRQAPGKGLEWVSAISGDGRSTTYADSVKGRFTISRDNSKNTLYLQMNSLRAEDTAVYYCARDGTVNGATGWFDPWGQGTLVTVSS
VL: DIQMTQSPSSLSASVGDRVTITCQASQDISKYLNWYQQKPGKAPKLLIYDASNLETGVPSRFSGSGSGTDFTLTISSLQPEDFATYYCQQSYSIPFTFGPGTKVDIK
notes: IgG format
B9: MAdCAM Antibody Table 2 clone 78 (antibody, V domains shown)
VH: QVQLVQSGAEVKKPGSSVKVSCKASGGTFSSYAISWVRQAPGQGLEWMGWMEPHTGNTRYAQKFQGRVTITADESTSTAYMELSSLRSEDTAVYYCAKGGFSWFDPWGQGTLVTVSS
VL: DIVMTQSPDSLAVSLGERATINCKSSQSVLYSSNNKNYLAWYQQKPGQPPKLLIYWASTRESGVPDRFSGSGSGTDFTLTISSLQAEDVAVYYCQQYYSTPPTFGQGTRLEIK
notes: IgG format
B10: MAdCAM Antibody Table 2 clone 76 (antibody, V domains shown)
VH: EVQLLESGGGLVQPGGSLRLSCAASGFTFDDYTMHWVRQAPGKGLEWVSDISGSGGSTYYADSVKGRFTISRDNSKNTLYLQMNSLRAEDTAVYYCAKDVVVAGTPLHFDYWGQGTLVTVSS
VL: DIQMTQSPSSLSASVGDRVTITCQASQDISNYLNWYQQKPGKAPKLLIYAASYLQSGVPSRFSGSGSGTDFTLTISSLQPEDFATYYCQQAHNYPITFGQGTRLEIK
notes: IgG format
B11: MAdCAM Antibody Table 2 clone 84 (antibody, V domains shown)
VH: QVQLVQSGAEVKKPGASVKVSCKASGGTFSSSAISWVRQAPGQGLEWMGWISAYNGYTNYAQKFQGRVTMTRDTSTSTVYMELSSLRSEDTAVYYCASRVHSGGSYPDDYWGQGTLVTVSS
VL: B10 VL with Q27E, D28H, S30Y, Y53S, A91T, H92D, N93S, Y94I, R103K, L104V
notes: IgG format
B12: MAdCAM Antibody Table 2 clone 28 (antibody, V domains shown)
VH: EVQLLESGGGLVQPGGSLRLSCAASGFTFSSYAMSWVRQAPGKGLEWVSYISSSSTYTNYADSVKGRFTISRDNSKNTLYLQMNSLRAEDTAVYYCARANSSSWYDWYFDLWGQGTLVTVSS
VL: not shown
notes: IgG format
B13: MAdCAM Antibody Table 2 clone 29 (antibody, V domains shown)
VH: B12 VH with A33Q
VL: not shown
notes: IgG format
B14: MAdCAM Antibody Table 2 clone 7 (antibody, V domains shown)
VH: EVQLLESGGGLVQPGGSLRLSCAASGFTFSDYQMSWVRQAPGKGLEWVAIISHADGGFKDYADSVKGRFTISRDNSKNTLYLQMNSLRAEDTAVYYCAKPYSSGWSAVYYFDYWGQGTLVTVSS
VL: DIQMTQSPSSLSASVGDRVTITCRASRGITNDLGWYQQKPGKAPKLLIYAASTLQSGVPSRFSGSGSGTDFTLTISSLQPEDFATYYCQQAYSFPWTFGQGTKVEIK
notes: IgG format
B15: MAdCAM Antibody Table 2 clone 6 (antibody, V domains shown)
VH: EVQLLESGGGLVQPGGSLRLSCAASGFTFNNYAFHWVRQAPGKGLEWVSRINSYGTSTTYADSVKGRFTISRDNSKNTLYLQMNSLRAEDTAVYYCAREGPVAGYWYFDLWGQGTLVTVSS
VL: B4 VL with S28I, S30G, S31T, W32N, A50G, N53S, R56S, S93R, I94L, I96F
notes: IgG format
B16: MAdCAM Antibody Table 2 clone 14 (antibody, V domains shown)
VH: QVQLVQSGAEVKKPGSSVKVSCKASGYTFTNYYMHWVRQAPGQGLEWMGGIIPIVDGVKYAQKFQGRVTITADESTSTAYMELSSLRSEDTAVYYCAKGQFTGNYYYGMDYWGQGTLVTVSS
VL: DIQMTQSPSSLSASVGDRVTITCQANQDISNYLNWYQQKPGKAPKLLIYRASKLEAGVPSRFSGSGSGTDFTLTISSLQPEDFATYYCQQSSEIPYSFGQGTKVEIK
notes: IgG format

Target: T1, human MAdCAM protein
Test: Octet

Binder	binding result
B1	binds
B2	binds
B3	binds
B4	binds
B5	binds
B6	binds
B7	binds
B8	binds
B9	binds
B10	binds
B11	binds

Target: T2, recombinant mouse MAdCAM-1
Test: Octet

Binder	binding result
B12	no binding
B13	no binding
B14	binds
B15	no binding
B16	no binding

Target: T3, mouse MAdCAM expressed on cells
Test: cell binding

Binder	binding result
B1	no binding
B2	no binding
B12	no binding
B13	no binding
B14	binds
B3	no binding
B4	binds
B15	no binding
B5	binds
B6	binds
B7	binds
B8	binds
B9	binds
B16	no binding
B10	binds
B11	binds

Target: T4, human MAdCAM expressed on cells
Test: cell binding

Binder	binding result
B1	binds
B2	binds
B14	binds
B3	binds
B4	binds
B5	binds
B6	binds
B7	binds
B8	binds
B9	binds
B10	binds
B11	binds
